Test results as given in the nanobody polyreactivity screen of Harvey et al. (2022).

test: yeast display, Sf9 membrane polyspecificity reagent, FACS + sequencing; frameworks hold sequencing errors
Procedure, shortened: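 In a synthetic yeast display library (Saccharomyces cerevisiae BJ5465), nanobody expression was induced with galactose for 36–48 hours. FACS gates were set low and high (top ~1%) using anti-HA fluorescence for expression and streptavidin fluorescence for binding of the Sf9 membrane reagent. Each polyreactivity label is drawn from the gate of origin.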

Sequence	polyreactivity (PSR sort gate)
QVQLVESGGGLVQAGGSLRLSCAASGRNFHKYAMGWYRQAPGKERELVAAITGSGVRTYYADSVKGRFTISRDNAKNTVYLQMNSLKPEDTAVYYCNADSYYGNGDYWGQGTQVTVSS	high polyreactivity
QVQLVESGGGLVQAGGSLRLSCAASGSIFHFYAMGWYRQAPGKERELVAAITSGTSTYYADSVKGRFTISRDNAKNTVFLQMNSLKPEDTAVYYCAAEASHYYYNAYPSYGGSDYWGQGTQVTVSS	low polyreactivity
QVQLVESGGGLVQAGGSLRLSCADSGRIFRYYAMGWYRQAPGKERELVAAISGSGGSTYYADSVKGRFTISRDNSKNTVYLHMNSLKPEDTSVYYCAAAEYLYTLPYGYWGQGTQVTVSS	low polyreactivity
QVQLVESGGGLVQEGGSLSLSCAASGSTFTVYNMGWYRKAPGEERELVAANSRRGDSTYYADSVKGRFTISRDNAKNTVYSQMHSLKPEETAVYYSNARSAYGTGNQRGRRYYWGQGTEVTVSS	high polyreactivity
QVQLGESGGGLVQAGGSLRLSFAASGRISKRNDRGWSRQAPGKERELVAGITSTGSTSYAHSVKGRFTISRDNAKKTVYLQMNSLKPEDTAVYYCAARGQATYNWGQGTQVTVSS	high polyreactivity
QVQLVESGGGLVQAGGSLRLSCAASGFIFYRYAMGWYRQAPGKERELVSAISYRGGSTYYADSVKGRFTISRDNAKNTVYLQMNSLKPEDTAVYYCAASLRYYGLEMDYWGQGTQVTVSS	high polyreactivity
QDQLVESGGGLVQAGGSLRLSCAASGRIFGPYTMGWYRQAPGKEREFVAAISRSGDSTYYADSVKGRFTISRDNAKNTVYLQMNSLKPEDSAVYYCAAKYGTRLSAYYYWGQGTLVTVSS	high polyreactivity
QVQHVESGGGLVQAGGSLRLSCAASGSTFAINAMGGYRQAPGKERELVAAISSSGSTNYADSVKGRFTISRDNAKNTVYLQMNSLKPEDTAVSYCAADRVWGTPQAYVPSQFDYWGQGTQVTVSS	low polyreactivity
QVQIVESGGGLVQAGGSLPLSCAASGSIFDYYVMGWYRQAPGKERELVAAINWSGDGTNYADSVKGRFTISRDNAKNTVYLQMNSLKPEDTAVYYCNADWTSDGFGTRLDYWGQGTQVTVSS	low polyreactivity
QVQLQESGGGLVQAGGSLRLSCAASGSIFDGFYMGWYRQAPGKEREFVAAISYGASTYYADSVKGRFTVSRDNAKNSVYLQMNSLKPEDTAVYYCAVYDELYHVLVYWGRGTQVTVSS	low polyreactivity
QVQLVESGGGLVQAGGRLRLSCAASGRTFIGYAMGWSRQAPGKERELVAAISSTGGSTYYADSVKGRFTISRDNAKNTVYLQMNSLKPEDTAVYYCATDADRPPRTPDISYVSNFDYWGQGTQVTVSS	low polyreactivity
QVQLVESGGGLVQAGGSLRLSFAASGITITYYAMGWYRQAPGKERELVAGITNGRSTYYADSVKGRFTISRDNAKNTVYLQMNSLKPEDTAVYYCAAYVWSHSVGHDYWGQGTQVTVSS	low polyreactivity
QVQLGESGGGLVQAGGSLRLSCAASGSILRSYAMGWYRQAPGKERELVAVINGSGDRTYYADSVKGRFTISRDTAKNTVYLQMNSLKPEDTAVYYCNVVRRSPGDYSYYYWGKGTQVTVSS	low polyreactivity
QVQLVESGGGLVQAGGSLRLSCAASGRIFWPYARGWYRPAPGKERELVAAITSGGSTYYADSVKGRFTISRDNAKNTVYLQMNSLKQEDTAVYYCAKLSSGVSVPVAYGGIKRYNSWGQGTQVTVSS	low polyreactivity
QVQLVESGGRLVQAGGSLRLSCDASGSIFAYYAMGGYRQAPGKERELVAAMCSGGGTYYADSVKGRFTISRDKAKTTVYLQMNSLKPEDTAVYYCAADGLWHIFYPGTGVDYWGQGTQVTVSS	low polyreactivity
QVKLVESGGGLVKAGGSIRLSCAASGFTFGVYAKGSYRQAPAKERELVAAISTTVGSTYYADSVKGRFTISRDNAKNTVYLQMNSLKPEVTAVYYCSAEYTGYINYYIYEYWGQGTQVTVSS	low polyreactivity
QVQLVESVGGLVQAGGSLRLSCAASGRTFHGNAMRWYRQARGKERELVAAISYSGGRTYYADSVKGRFTISRDNAKNTVYLQMNSLKPEDTAVYYCAAWGSSYSFDYWGQGTQVTVSS	high polyreactivity
QVQLVESGGGLVQAGGSLRLSCAASGRIFSYYAMGWYRQAPGKERELVATINSGGSTNYADSVKRRFTISRDNAKNTVYLQMNSLKPEDTAVYYCAASPVWWSDYWGQGTQVTVSS	low polyreactivity
QVQLVESGGGLVQERVSLRLSCAASGFIFLFNAMGWNRQAPGKERELVAAISDDGSTYYADSLKGRFTISRDNAKNTVYLQMTSLKTEDTAVYYCAAEYYYDRYTLDYWGQGTQVTVSS	high polyreactivity
QVQLVESGGGLVQAGGSLRLSCADSGRIFSPNAMGWYRQAPGKETELVASISSAGSTNYADSVKGRFTISRDNAKNTVYLQMNSLKPEDTAFYYCAADYYGYWLSVHAWGAVTFDYWGQGTQVTVSS	low polyreactivity
QVQLVESGGGLVQAGGSLRLSCAASGSTFVYYAMGWYRQAPGKERELVAAISTSAGSTYYADSVKGRFTISRDNAKNTVYLQMNSLKPEDTAVYYCAAGRYYRGYYWGQGTQVTVSS	high polyreactivity
QVQLVESGGGLVQAGGSLRLSCAASGGTYRVKAMGWYRQAPGKEREFVAAISGSGSSTYYADSVKGRFTISRDNAKNTVYLQMNSLKPEDTAVYYCAARSCVGGDNDYWGQGTQVTVSS	low polyreactivity

Sequence	polyreactivity (PSR sort gate)
QVQLVESGGGLVQAGGSLRLSCAASGSIFGFYAMGWYRQAPGKERELVASINWSGGSTYYADSVKGRFTISRDNAKNTVYLQMNSLKPEDTAVYYCNADQYHWYDYWGQGTQVTVSS	low polyreactivity
QGQLVDSGGGVVQAGGSLRLSCAASGRTFPVYAMGWYRQAPGKERELVAAISSRGGSTYYADSVKGRFTISRDNAKNTVYLQMNSLKPEDTAVYYCAARMPGPRRFTMDYWGQGTQVTVSS	high polyreactivity
QVQLVESGGGLVQAGGSLRLSCAASGSTFAKYVMGWYRQAPGKERELVAAISTRGTRTYYADSVKGRFTISRDTAKNTVYLQMNSLKPEDTAVYYCAVVTIISSRLGNYWGQGTQVTVSS	high polyreactivity
QVQLVESGGGLVQAGGSLRLSCAASGISDWYAMGWYRQAPGKERELVASITDGGSTKYADSVKGRFTISRDNAKNTVYLQMNSLKPEDTAVYYCNTTFRVYFSRSWWSRYYYWGLGTQVTVSS	low polyreactivity
QVQLVESGGGLVQAGGSLRLSCAASGGTFRNYAMGWYRQAPGKERELVAGITSGSRTNYADSVKGRFTISRDNAKNTVYLQMNSLKPEDTAVYYCNARGNYVGRPYPVKHAYRSYYWGQGTQVTVSS	high polyreactivity
QVQLVESGGGLVQAGGSLRLSCAASGSTFYLYAMGLYRQAPGKERELVAAISSGGRTNYADSVKGRFTISRDNAKNTVYLQMNSLKPEDTAVYYCAARIQWPTWSLYYYWGQGTQVTVSS	high polyreactivity
QVQLVESGGGLVQAGGSLRLSCAASVITFIDYARGWYRQAPGKERELVAAINSSGGGTYYADSVKGRFTISRDNAKNTVYLQMNSLKPEDTAVYYCAADFWYWGQIDSSDYWGQGTQVTVSS	low polyreactivity
QVQLVESAGGLVQAGGSLRLSCAASGRTLRGYAMGWYRQAPGKERELVAAITWSGGSTYYADSVKGRFTISRDNAKNTVYLQMNSLKPEDTAVYYCNARSYPDLYDYWGQGTQVTVSS	high polyreactivity
QVQLVESGGGLVQAGGSLRLSCAASGSIFEGNAMGWYREAPGKERELVASISGDGSTNYADSVKGRFTISRDNAKNTVYLQMNSLKPEDTAVYYCNADTISEPGFHMDYWGQGTQVTVSS	low polyreactivity
QVQLVESGGGLVQAGGSLRLSCAASGSTFYQYAMGWYRQAPGKERELVAAISWDSGSTYYADSVKGRFTISRDNAKNTVYLQMNSLKPEDTAVYYCAASWYGYYDCYAVEYDYLGQGTQVTVSS	low polyreactivity
QVQLVESGGGLLQAGGSLRLSCASSGSTFYTNDMGWYRPAPGKERELVAAITSAGNTNYADSVKGRFTISRDNAKNTVYLQMNSLKPEDTAVYYYYYYQYDYWGQGTQVTVSS	low polyreactivity
QVQLVESGGGLVQAGGSLRLICAASGRTFSVNDMGWYRQAPGKERELVAAISFSGGSTYYADSVKGRFTISRDNAKNTVYLQMNSLKPEDTAVYYCAAEAYPSWFYVITGFGIYDYWGQGTQVTVSS	high polyreactivity
QDQLVESGGGLVQAGCSLRISCAASGRTFGVYAMGWYRQAPGKERELVAAINRSGTRTYYADSVKGRFTISRDHAKNTVYLPMNSLKPEDTAVYYCAASWYPGSRNYDYWGQGTQVTVSS	high polyreactivity
QVQLVESGGGLVQAGGSLRLSCAASGSIFRYYAMGWYIQAPGKERELVASITRGGTRTYYADSVKGRFTISRDYAQNTVYLQMNSLKPEDTAVYYCAATYAWYVAPTYDYWGQGTQVTVSS	high polyreactivity
QVQLVESGGGLVQAGGSLRLSCAASGSTIERYAMGWYRHAPGKERELVAAIRWSGGSTYYADSVKGRFTISRDNAKNTVYLQMNSLKPEDTAVYYCAASRSNADWFDSWGQGTQVTVSS	high polyreactivity
QVQLVESGGGLVQAGGSLRLSCAASGRTFYPNAMGWYRQAPGKEREFVARISDSGGYTYYADSVKGRFTISRDNAKNTVYLQMNSLKPEDTAVYYCAADYGDPRVNEYDYWGQGTQVTVSS	low polyreactivity
QVQLVESGGGLVQAGGSLRLSCAASGSIFLGSVMVWYRQAPGKERELVATITGNGDGTYYADSVKGRFTISRDKAKNTVYLQMNSLKPADTAVYYCAADRSGPGYDYWGQGTQVTVSS	low polyreactivity
QVQLVESGGGLVQEGGSLRLSCADSGSTFASYAMGWNRQAPGKERELVAAITDSGGSTYYADSVKGRFTISRDNAKNTVYLQMNSLKPEVTAVYDCAAEDQESNAAGGYWGQGTQVTVSS	low polyreactivity
QVQLVESGGGLVQAGGRLRLSCAASGRTFYKNARGWYREAPGKERELVAAITNRGGSTYYADSVKGRFTISRDNAKNTVYLQMNSLKPEDTAVYYCNARRGSTGNVARWHYDYWGQGTQVTVSS	low polyreactivity
QVQLVESGGGLVQAGGSLRLSCAASGRIFTQYTMGWYRQAPGKERELVAAINYSGGRTNYADSVKGRFTISRDIAKNTVYLQMNSLKPEDTAVYYCAAGYRRATYGYWGQGTQVTVSS	high polyreactivity
QVQLVESGGRLVQAGGSLRLSCAASGSIFSYYAMGWYRQATGKERELVASISSAGSTNYADSVKGRFTISRDNAKNTVYLQMNSLKPEDTAVYYCNTDDDSSSTGYYSWGQGTQVTVSS	low polyreactivity
